Consider eight molecules from patent US20250270315A1 (ELPISCIENCE SUZHOU BIOPHARMA, published 2025).

Where a chain is given by its changes, count along the chain named.

To fix the notation:
T1: C57BL/6 mouse SIRPα stably expressed on CHOK1 cells (C57BL/6 mouse, UniProt P97797 32-513)
T1 construct: whole, on cells; also called CHOK1-C57BL/6 mouse SIRPα
T1 sequence (looked up): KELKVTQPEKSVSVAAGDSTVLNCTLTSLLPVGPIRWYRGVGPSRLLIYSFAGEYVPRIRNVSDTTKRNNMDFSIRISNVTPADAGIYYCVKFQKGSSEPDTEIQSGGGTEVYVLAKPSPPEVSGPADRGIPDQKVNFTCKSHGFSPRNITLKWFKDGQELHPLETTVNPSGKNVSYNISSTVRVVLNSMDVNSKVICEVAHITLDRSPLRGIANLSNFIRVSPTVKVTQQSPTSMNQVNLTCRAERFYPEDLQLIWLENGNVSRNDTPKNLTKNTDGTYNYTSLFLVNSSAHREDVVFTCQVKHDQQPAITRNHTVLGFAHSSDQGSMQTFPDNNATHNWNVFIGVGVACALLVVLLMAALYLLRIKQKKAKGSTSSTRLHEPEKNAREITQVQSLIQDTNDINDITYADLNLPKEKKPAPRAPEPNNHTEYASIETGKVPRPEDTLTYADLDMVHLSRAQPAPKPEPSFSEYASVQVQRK

B1: HEFLB (antibody, V domains shown)
VH: EVQLVQSGAEVKKPGESLRISCKASGYSFTSYWVHWVRQMPGKGLEWMGNIDPSDSDTHYSPSFQGHVTLSVDKSISTAYLQLSSLKASDTAMYYCVRGGTGTLAYFAYWGQGTLVTVSS
VL: DVVMTQSPLSLPVTLGQPASISCRSSQSLVHSYGNTYLYWFQQRPGQSPRLLIYRVSNRFSGVPDRFSGSGSGTDFTLKISRVEAEDVGVYYCFQGTHVPYTFGGGTKVEIK
B2: 005 (antibody, V domains shown)
VH: EVKLVESGGGLVQPGGSLSLSCAASGFTFTDYYMSWVRQPPGKALEWLGFIKNEANGYTTESSASVKGRFTISRDNSQSILYLQMNALRAEDSATYYCARYDYYGSNYNWYFDAWGTGTTVTVSS
VL: DIVMTQSQKFMSPSVGDRVSITCKASQNVRTAVAWYQQKPGQSPKVLIHLASKRHTGVPDRFTGSGSGTDFTLTISNVQSEDLADYFCLQHWIHPLTFGAGTKLELK
notes: Mouse monoclonal hybridoma antibody purified on Protein A; also called antibody 005; hybridoma antibody 005
B3: 015 (antibody, V domains shown)
VH: EVQLQQSGVEVVQPGASVKLSCTASGFNIEAYYMHWVKQRTEQGLEWIGRIDPEDGESKYAPKFQGKATMTADTSSSTAYLQLSSLTSDDTAVYYCVRGSYEYWGQGTTLTVSS
VL: QIVLTQSPAIMSASPGEKVTLTCSASSSVSSSYLYWYQQKPGSSPKLWIYSTSNLASGVPPRFSGSGSGTSYSLTISSMQAEDAASYFCYQWSSYPYTFGGGTKLEIK
notes: Mouse monoclonal hybridoma antibody; also called antibody 015; hybridoma antibody 015
B4: 025 (antibody, V domains shown)
VH: EVQLQQSGAELVKPGASVKLSCTASGFNIKDYYMHWVKQRTEQGLEWIGRIDPEDGETKYAPKFQGKATITADTSSNTAYLQLSSLTSEDTAVYYCDRGLAYWGQGTLVTVSA
VL: B3 VL with P61A, Q80E, Y90H
notes: Mouse monoclonal hybridoma antibody; also called antibody 025; hybridoma antibody 025
B5: 071 (antibody, V domains shown)
VH: QIQLVQSGPELKKPGETVKISCKASGYTFTTYGMSWVKQAPGKGLKWMVWINTYSGVPTYADDFQGRFAFSLETSASTSYLQINNLRNEDTATYFCARDPHYYGTSPAWFAYWGQGTLVTVSA
VL: DIVMTQSQKFMSTTIGDRVIITCKASQIVGIAVAWYQQKPGQSPKLLIYSASNRFTGVPDRFTGSGSGTDFTLTISNMQSEDLADYFCQQYSTYPFTFGSGTKLEIK
notes: Mouse monoclonal hybridoma antibody; also called antibody 071; hybridoma antibody 071
B6: 042 (antibody, V domains shown)
VH: QIQLVQSGPELKKPGETVKISCRASGYTFTTYGMSWVKQAPGKGLRWMGWINTYSGVSTCADDFKGRFAFSLETSATTAYLQIHNLTNEDTATYFCARDPHSYGNSPAWFPYWGQGTLVTVSA
VL: B5 VL with G16R, I20S, I28N, A32S, P40S, F55Y, T93S, F96L, E105A
notes: Mouse monoclonal hybridoma antibody; also called antibody 042; hybridoma antibody 042
B7: 073 (antibody, V domains shown)
VH: B5 VH with Q65K, R87K, T105S, A111V
VL: B5 VL with I20S, K24E, F55Y, D85N, T93A, I106V
notes: Mouse monoclonal hybridoma antibody; also called antibody 073; hybridoma antibody 073
B8: 059 (antibody, V domains shown)
VH: QVQLQQSGPELVKPGASVKMSCKASGYTFSEYVLSWVKQRTGQGLEWIGEIYPGTITTYYNEKFKGKATLTADKSSNTAYIQLTSLTSEDSAVYFCGRFYDYDGGWFAYWGQGTLLTVSA
VL: ENVLTQSPEKMAVSLGQKVTMTCSASSSVSSSDLHWYQQKSGASPKPLIHGTSNLASGVPARFSGSGSGTSYSLTISSVEAEDAATYYCQQWSGYPWTFGGGTNLEIK
notes: Mouse monoclonal hybridoma antibody; also called antibody 059; hybridoma antibody 059

T3 sequence (P78324 31-370 limits assumed): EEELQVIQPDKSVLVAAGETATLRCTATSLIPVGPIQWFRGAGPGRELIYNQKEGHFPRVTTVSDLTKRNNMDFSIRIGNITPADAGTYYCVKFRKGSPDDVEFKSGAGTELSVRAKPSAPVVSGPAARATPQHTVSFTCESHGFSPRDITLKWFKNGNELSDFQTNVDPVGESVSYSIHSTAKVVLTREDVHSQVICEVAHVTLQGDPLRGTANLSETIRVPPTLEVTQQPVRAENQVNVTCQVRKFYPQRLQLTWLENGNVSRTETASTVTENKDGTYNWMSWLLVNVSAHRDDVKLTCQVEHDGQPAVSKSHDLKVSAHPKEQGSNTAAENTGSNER
T2 sequence (P78324 31-504): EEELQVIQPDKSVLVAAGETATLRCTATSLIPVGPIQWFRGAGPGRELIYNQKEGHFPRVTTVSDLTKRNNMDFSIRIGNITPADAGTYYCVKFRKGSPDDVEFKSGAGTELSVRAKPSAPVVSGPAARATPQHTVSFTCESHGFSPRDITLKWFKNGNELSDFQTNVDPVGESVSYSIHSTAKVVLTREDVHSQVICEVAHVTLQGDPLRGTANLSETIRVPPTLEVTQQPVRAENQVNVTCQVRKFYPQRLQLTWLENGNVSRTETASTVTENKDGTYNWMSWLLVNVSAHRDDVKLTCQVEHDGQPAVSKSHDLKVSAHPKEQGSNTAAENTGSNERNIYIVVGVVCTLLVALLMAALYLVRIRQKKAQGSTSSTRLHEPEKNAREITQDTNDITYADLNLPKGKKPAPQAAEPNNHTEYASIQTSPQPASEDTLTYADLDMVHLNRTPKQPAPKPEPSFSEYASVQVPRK
Sequence of full length human SIRPα v1 with a small beta-gal fragment (ED) fused to its C-terminal, expressed in K562 … (P78324 31-504): as above

One assay has as its target full length human SIRPα v1 with a small beta-gal fragment (ED) fused to its C-terminal, expressed in K562 … (human, UniProt P78324 31-504). The assay can be described thus: cell-based or functional assay.
In the case of B1, the “SHP-1 recruitment (% blocking), Test I” value was 46.8% and the “SHP-1 recruitment (% blocking), Test II” value is 50.3%.
As for B2, the “SHP-1 recruitment (% blocking), Test I” value is 71% and the “SHP-1 recruitment (% blocking), Test II” value was 82.7%.
Regarding B3, the “SHP-1 recruitment (% blocking), Test I” value turned out to be 83.6% and the “SHP-1 recruitment (% blocking), Test II” value was 89.6%.
The matching figures for B4: 83.9% and 91.2%.
The matching figures for B5: 77.2% and 72.6%.
B6: the “SHP-1 recruitment (% blocking), Test I” value was determined as 84.8% and the “SHP-1 recruitment (% blocking), Test II” value came out at 76.1%.
Regarding B7, the “SHP-1 recruitment (% blocking), Test I” value was determined as 76.9% and the “SHP-1 recruitment (% blocking), Test II” value came out at 75.9%.
Take B8: the “SHP-1 recruitment (% blocking), Test I” value is 77.5% and the “SHP-1 recruitment (% blocking), Test II” value stood at 80.2%.

The next assay concerns the target T2, full length human SIRPα v1 stably expressed on CHOK1 or 293F cells (human, UniProt P78324 31-504).
T2 construct: whole, on cells; also called CHOK1-human SIRPα v1; CHOK1-hSIRPα v1
The assay is described as follows: FACS, CHOK1-human SIRPα v1 cells. Here is the method: (§1) Species cross reactivity of the purified hybridoma antibodies against human, cyno and mouse SIRPα was determined by FACS assay using CHOK1 cells stably expressing human SIRPα v1, CHOK 1-cyno SIRPα and C57BL/6 mouse SIRPα. Briefly the antibodies were incubated with 2×10⁵ target cells at 4° C. for 1 hour. After washing, fluorescence labeled anti-mouse IgG 2nd antibody (Life Technologies) was added and incubated at 4° C. for 1 hour. Geometric median fluorescence intensity was detected and EC₅₀ was calculated using GraphPad Prism9.0. Other than HEFLB, all antibodies as tested can bind to cyno SIRPα. None of tested antibodies can bind to C57BL/6 mouse SIRPα.
For B1, the midpoint of the response, the EC50, lay at 11.2 nM.
Consider B2, for which the EC50 was 1.8 nM.
With B3, the EC50 amounted to 1 nM.
In turn, B4 returned an EC50 of 0.9 nM.
Molecule B5 came in with an EC50 of 0.2 nM.
Molecule B6 displayed an EC50 of 0.2 nM.
B7 yielded an EC50 of 0.2 nM.
On the same count and under the same terms, then B8, with 0.1 nM.

A further assay has as its target T3, Fc tagged human SIRPα v1 ECD recombinant protein (human, UniProt P78324 31-370).
T3 construct: range 1-370; also called hFc tagged human SIRPα v1 ECD; not shown: human IgG Fc (hFc) tag
The assay is described as follows: ELISA, coated Fc tagged human SIRPα v1 ECD. Here is the method: (§2) Binding specificity of the purified hybridoma antibodies against human SIRPα variants was detected by ELISA assay using recombinant proteins of Fc tagged human SIRPα v1 ECD and human SIRPα v2 ECD. Briefly the antibodies were incubated with ELISA microplate coated antigens at 37° C. for 1 hour. After washing, horseradish peroxidase (HRP) labeled anti-mouse IgG 2nd Ab (Sigma) was added and incubated at 37° C. for 1 hour. Then, 100 μl/well of TMB solution (Biotechnology) was added. After incubation for 15 minutes at room temperature, the reaction was stopped by the addition of 50 ul of 1N HCl. OD 450 nm was read and EC₅₀ was calculated using GraphPad Prism9.0. Other than HEFLB, all antibodies as tested bind to both human SIRPα v1 and human SIRPα v2. HEFLB can only bind to human SIRPα v1 but not human SIRPα v2.
With B1, the EC50 is 0.17 nM.
Turning to B2, the EC50 was 0.13 nM.
As to B3, the EC50 was 0.1 nM.
Regarding B4, the EC50 is 0.04 nM.
Take B5: the EC50 was determined as 0.03 nM.
Same read-out and setting: with B6 the figure was 0.03 nM; with B7, 0.03 nM; with B8, 0.03 nM.

For the next assay, the target named is T4, Fc tagged human SIRPα v2 ECD recombinant protein (human).
T4 construct: range 1-369; also called hFc tagged human SIRPα v2 ECD
The assay is described as follows: ELISA, coated Fc tagged human SIRPα v2 ECD. How it is done: as §2
In the case of B2, the half-maximal effective concentration (EC50) was found to be 0.12 nM.
On to B3, for which the EC50 came to 0.15 nM.
In the case of B4, the EC50 worked out at 0.06 nM.
As to B5, the EC50 was determined as 0.02 nM.
Regarding B6, the EC50 is 0.03 nM.
For B7, the concentration for a half-maximal effect (EC50) turned out to be 0.03 nM.
Same read-out and setting: then B8, with 0.1 nM.

Another assay concerns the target T1, C57BL/6 mouse SIRPα stably expressed on …. The assay can be described thus: FACS, CHOK1-C57BL/6 mouse SIRPα cells, MFI at 100 nM. Here is the method:
as §1
Take B1: the binding result is given as “no binding (tested: 100 nM)”.
Regarding B2, the binding result was “no binding (tested: 100 nM)”.
As for B3, the binding result was “no binding (tested: 100 nM)”.
For B4, the binding result is on record as “no binding (tested: 100 nM)”.
With B5, the binding result is reported as “no binding (tested: 100 nM)”.
In the case of B6, the binding result was “no binding (tested: 100 nM)”.
Turning to B7, the binding result is given as “no binding (tested: 100 nM)”.
As for B8, the binding result was “no binding (tested: 100 nM)”.

The target in a further assay is T2, full length human SIRPα v1 stably …. The assay can be described thus: competitive FACS, mFc-CD47 ECD on CHOK1-human SIRPα v1 cells. Here is the method: Competitive FACS assay was also set up to further compare the blocking activity of the humanized antibodies and reference antibodies. Briefly antibody and mFc tagged human CD47 ECD recombinant protein were co-incubated with CHOK1 cells stably expressing human SIRPα v1 (FIG. 16A) or human SIRPα v2 (FIG. 16B). After washing, dye labeled anti-mouse Fc 2nd antibody (Sigma) was added and incubated at 37° C. for 1 hour. Fluorescence intensity was detected. Blocking ratio was determined by blockade of human CD47 ECD recombinant protein binding to SIRPα expressed CHOK1 cells. […] In particular, HEFLB doesn't work at all for human SIRPα v2.
Take B1: the IC50 came out at 0.94 nM and the “TOP blocking (%)” value worked out at 97.6%.

In the next assay the target is T5, human SIRPα v1 ECD recombinant protein (tag not given) (human, UniProt P78324 31-373).
T5 construct: extracellular domain; also called biotin labeled soluble human SIRPα v1 ECD recombinant protein; ELISA microplate coated human SIRPα v1 ECD
T5 sequence (P78324 31-373): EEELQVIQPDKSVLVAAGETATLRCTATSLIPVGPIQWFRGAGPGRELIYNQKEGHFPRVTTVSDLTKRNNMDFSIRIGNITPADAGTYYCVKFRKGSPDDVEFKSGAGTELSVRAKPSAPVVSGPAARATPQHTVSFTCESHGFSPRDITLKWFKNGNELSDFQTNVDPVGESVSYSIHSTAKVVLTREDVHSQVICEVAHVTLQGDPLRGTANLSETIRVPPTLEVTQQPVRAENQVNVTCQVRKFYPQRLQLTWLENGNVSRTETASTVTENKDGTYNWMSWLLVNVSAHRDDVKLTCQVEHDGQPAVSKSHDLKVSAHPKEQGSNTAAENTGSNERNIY
The assay is described as follows: competitive ELISA, biotin human SIRPα v1 ECD on coated human CD47 ECD. How it is done: Competitive ELISA assay was used to determine whether the purified hybridoma antibodies can block CD47 and SIRPα interaction. Briefly, antibody and biotin labeled soluble human SIRPα v1 ECD recombinant protein were co-incubated with ELISA microplate coated human CD47 ECD recombinant protein. After washing, HRP labeled streptavidin (HRP-SA, Sigma) was added and incubated at 37° C. for 1 hour. Then, 100 μl/well of TMB solution (Biotechnology) was added. After incubation for 15 minutes at room temperature, the reaction was stopped by the addition of 50 μl of 1N HCl. OD 450 nm was read. The blocking ratios were determined by blockade of biotin labeled human SIRPα v1 ECD recombinant protein binding to ELISA microplate coated human CD47 ECD recombinant protein. Other than 005, all antibodies as tested can block human CD47 and human SIRPα v1 interaction.
As for B1, the half-inhibitory concentration (IC50) was determined as 0.5 nM.
On the same count and under the same terms, then B3, with 0.3 nM; and B4, with 0.15 nM; and B5, with 0.17 nM.
The same measure, in the same setting: then B6, with 0.14 nM; and B7, with 0.16 nM.
Same read-out and setting: then B8, with 0.12 nM.
